Measurements: IntAct's records for PubMed 26824392

Molecular target: rab8a_human RAB8A (UniProt P61006)
Sequence (P61006 whole entry): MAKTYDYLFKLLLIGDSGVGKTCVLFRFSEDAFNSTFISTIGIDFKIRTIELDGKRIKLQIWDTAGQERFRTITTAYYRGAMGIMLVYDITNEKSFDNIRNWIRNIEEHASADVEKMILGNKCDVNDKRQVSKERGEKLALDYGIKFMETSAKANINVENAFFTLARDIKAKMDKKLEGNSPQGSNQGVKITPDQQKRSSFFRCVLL

In the case of “Leucine-rich repeat serine/threonine-protein kinase 2 (Homo sapiens), Q5S007 R1441C”, the “effect of a mutation on the interaction” value is reported as “with no effect”.
